Experimental data published in patent US6753315.

Biological target: Torpedo nicotinic acetylcholine receptor (nAChR-enriched membranes) (Torpedo (species not stated)) (UniProt P02710)

Pichia-expressed, purified recombinant α-bungarotoxin (rBgtx) (from UniProt P60615 22-95) (ligand)
reduction in 125I-Bgtx bound: 45%
